Measurements taken from the DeepSol protein solubility set.

Assay: soluble on expression in E. coli; label from the status in PepcDB or PDB records

Which “soluble on expression in E. coli” value does the source give for “GSHMTALDWRSALTADEQRSVRALVTATTAVDGVAPVGEQVLRELGQQRTEHLLVAGSRPGGPIIGYLNLSPPRGAGGAMAELVVHPQSRRRGIGTAMARAALAKTAGRNQFWAHGTLDPARATASALGLVGVRELIQMRRPLRDIPEPTIPDGVVIRTYAGTSDDAELLRVNNAAFAGHPEQGGWTAVQLAERRGEAWFDPDGLILAFGDSPRERPGRLLGFHWTKVHPDHPGLGEVYVLGVDPAAQRRGLGQMLTSIGIVSLARRLGGRKTLDPAVEPAVLLYVESDNVAAVRTYQSLGFTTYSVDTAYALAGTDN” here?
Its value is “soluble”.

Which “soluble on expression in E. coli” value does the source give for “MSLADIPYGTDYPDAPWIDRDGHVLIDDGGKPTQVHRGQARIAYRLAERYQDKLLHVAGIGWHSWDGRRWAADDRGEAKRAVLAELRQALSDSLNDKELRADVRKCESASGVAGVLDLAAALVPFAATVADLDSDPHLLNVANGTLDLHTLKLRPHAPADRITKICRGAYQSDTESPLWQAFLTRVLPDEGVRGFVQRLAGVGLLGTVREHVLAILIGVGANGKSVFDKAIRYALGDYACTAEPDLFMHRENAHPTGEMDLRGVRWVAVSESEKDRRLAESTIKRLTGGDTIRARKMRQDFVEFTPSHTPLLITNHLPRVPGDDTAIWRRIRVVPFEVVIPADEQDRELDARLQLEADSILSWAVAGWSDYQRIGLSQPDAVLAATSNYREDSDTIKRFIDDECVTSSPVLKATTTHLFEAWQRWRVQEGVPEISRKAFGQSLDTHGYPVTDKARDGRWRAGIAVRGADDFDEGHHHHHH” here?
The value was “soluble”.

For “MGSDKIHHHHHHMKIAQIAPLFEAVPPRLYGGTERVVASICDALVKAGHQVDLYASGDSQSKARLIPCRERALRLDPAPLKSDIAAHYTLLDEVRRHAGEYDILHFHTDMLHFPFFEPIASKTLTTLHGRLDMADLPNAFKRWRQFPLVSISNDQRRALPGANWAGTVYHGLDPALYRFNPNPQGGYLAFLGRISPEKRPDRAIAIARKAGIPLKIAAKVDAADLNYYNDVIKPLLNQADVEFIGEITDAQKNDFLGNALALLFPVDWPEPFGLVMIEAMACGTPVIAWRCGSVPEIIEPGRNGFIVTDEHQAAAACHAATTLDRAKVREAFDMRFTSDVMAEHYLKLYKRLAASANDDNLMESQVG”, which “soluble on expression in E. coli” value is on record?
The value was “not soluble”.

Which “soluble on expression in E. coli” value does the source give for “MGHHHHHHSHMSDIYQHFRKDERAFIDQALEWKRIVQEQYRMKLTDFLDPREQVILSAVTGQADVGLAFSGGYDRAERKRAILFPEYITPEESDFELQAFNVRYADKFVSVDHRSLLGALMGIGLKRQKFGDIVFSETAVQLIVSADTADFVAAQLTQAGKAAVSLEKIDLSDLNIPAVDVEIRDDTVSSLRLDAVCASMSRQSRQKSQTLVKNGLVKVNWKVVEDPSYIVAEGDMLSIRGFGRCSLTKIEGKTKKDKWRVTFERQK” here?
The value was “not soluble”.

With “MTTAAKTETEDPTARRILDAALEQFTVFGLRRSSMDDVAKRAGVSRVTVYRRFGTKDALVEQTLLRENSRFFQRLDQAVAALPTMEERVVEGFVVALRHTRAHPLFGGLLRLEPEVVLPYLTVHGGSSLAATVDYLTGHLRRAQQAEGRPGDDPRPVAELMVRVAVSFLLNPASCIEMDDEDQARAFARRYLAPLLNA” as the sequence, how does the “soluble on expression in E. coli” value read?
The value was “not soluble”.

Which “soluble on expression in E. coli” value does the source give for “SPMANSGPLCCTICHERLEDTHFVQCPSVPSHKFCFPCSRESIKAQGATGEVYCPSGEKCPLVGSNVPWAFMQGEIATIL” here?
The value was “soluble”.

With “MRISLPVAEAAAAGGRAGKHGKAITFLTPDDTAVYFDLKQVKIVDGHLPTHVFSLNCLRRYARMDSRNMMLHGANLDNSHLDVKVNFLFENFKHFSVFLKLTKSSK” as the sequence, how does the “soluble on expression in E. coli” value read?
The value was “soluble”.

For “MAKNSKFDRVQVVDKAVDLYWEKGFHGTSMRNLQEVIDMRPGSIYATFGSKEGLFKESLQRYTQSGILHLEQCCHEQKSPLLGLKSFIHNIVVEKRSSAPSGMCMLVKTVTELTNENEELLTEAKRSLKIMESEFEKVLRQAQEIGEIEKEKDTKQLAQFVQVQIAGLRTYARTVDSDLPLQNMLDNMFSHYPF”, which “soluble on expression in E. coli” value is on record?
The value was “not soluble”.

With “MMIEPKEKASIGIIGGSGLYDPQILTNVKEIKVYTPYGEPSDNIILGELEGRKVAFLPRHGRGHRIPPHKINYRANIWALKSLGVKWVIAVSAVGSLRLDYKPGDFVVPNQFIDMTKGRTYTFFDGPTVAHVSMADPFCEHLRSIILDSAKDLGITTHDKGTYICIEGPRFSTRAESIVWKEVFKADIIGMTLVPEVNLACEAEMCYSVIGMVTDYDVFADIPVTAEEVTKVMAENTAKVKKLLYEVIRRLPEKPDERKCSCCQALKTALVLEHHHHHHHH” as the sequence, how does the “soluble on expression in E. coli” value read?
The value was “soluble”.

Which “soluble on expression in E. coli” value does the source give for “MQNPFVPQLVYIEPRALEYPLGQELQDKFENMGIEIRETTSHNQVRNIPGKNHLQQYRNAKSTLVIGVRKTLKFDSSKPSAEYAIPFATGCMGHCHYCYLQTTMGSKPYIRTYVNVEEILDQADKYMKERAPEFTRFEASCTSDIVGIDHLTHTLKRAIEHFGQSDLGKLRFVTKFHHVDHLLDAKHNGKTRFRFSINADYVIKNFEPGTSPLDKRIEAAVKVAKAGYPLGFIVAPIYIHEGWEEGYRHLFEKLDAALPQDVRHDITFELIQHRFTKPAKRVIEKNYPKTKLELDEEKRRYKWGRYGIGKYIYQKDEEHALREALESYIDTFFPNAKIEYFT” here?
Its value is “not soluble”.

For “MRGHLIDGDGRCIHYHGPFDVVGNKCATCNEWWACHRCHEEIANHPFGKMLIDAPSSLQCGHCGELMAYGVQKCPRCGHNFNPGCSLHTPLYYEMPSLEHHHHHH”, which “soluble on expression in E. coli” value is on record?
Its value is “not soluble”.

Which “soluble on expression in E. coli” value does the source give for “MKHSLPDLPYDYADLEPVISHEIMQLHHQKHHATYVNNLNQIEEKLHEAVSKGNVKEAIALQPALKFNGGGHINHSIFWTNLAKDGGEPSAELLTAIKSDFGSLDNLQKQLSASTVAVQGSGWGWLGYCPKGKILKVATCANQDPLEATTGLVPLFGIDVWEHAYYLQYKNVRPDYVNAIWKIANWKNVSERFAKAQQ” here?
Its value is “soluble”.

With “GSHMSETDLLMKMVRQPVKLYSVATLFHEFSEVITKLEHSVQKEPTSLLSEENWHKQFLKFAQALPAHGSASWLNLDDALQAVVGNSRSAFLHQLIAKLKSRHLQVLELNKIGSEPLDLSNLPAPFYVLLPESFAARITLLVQDKALPYVRVSMEYWHALEYKGELNDPAANKARKEAELAAATAEQ” as the sequence, how does the “soluble on expression in E. coli” value read?
The value was “soluble”.

With “MSLIGKHFIITGATSGLGFAITNELLQRGAHVTILARNIDKFNRIKENYFKPEHINVIKCDLMQRKDIESLQKFLNTPINGFIYSSGVGYFKSISEHSTREVVETYEVNLTNFNLLYKVIQPQLVKAAYIVGISSQAALVSQANAAHYGASKAGFSAVLNALRLEQPELKVLNVQPGPIDTPFQKNADPTLKYFKNYRHMMIQPQQLAKQIVEGIILNKIEINQPSWMQEGHHHHHH” as the sequence, how does the “soluble on expression in E. coli” value read?
The value was “not soluble”.

Which “soluble on expression in E. coli” value does the source give for “MPKIAKSDRLENVAFEYIKNKITTGEYPTGYRVVEAKLSQELNMSRTPIRRAIINLCHSGFLVHQYNRGAFVQNTEVTITEFFSRMKLVELLVYESTEKLALREDYIVVDDIIEIAEKVIQYEKNREYELMRGAFEDFISTFIGKLNNDYFNRVIQDLWNEINDNATKEVRLIIVSASDRIAEELAHMIEILKSWNYEQLKKCFQHIMNAMILIAF” here?
Its value is “not soluble”.

Which “soluble on expression in E. coli” value does the source give for “MTTQQKKSSTRQGFKTGESIVYPAHGVGQIVAIEEQEVAGMKLELFVIDFEKDKMRLKVPVAKAVGIGMRKLSETDFVDRALKVVQGKARVKRTMWSRRAQEYDAKINSGDLISIAEVVRDLYRAENQPEQSYSERQLYEAALDRMAREIAAVNRMSETEAVRLVEANLNKGPKRGKAIEEDDAQDEAA” here?
Its value is “not soluble”.

With “MSYDYIVSQYLAYIKDITLEGCKAEEIFDYFKDKLNIVSKEGCDKPYIKVYKNNRLYFSYYGIPAINEFWPFLNALVRISNNVIQLDEKEKELAANIRGNIKLFVTPDCTKCPIAAELLYQLPILNSNISLEIIDVTTYDDLGKKHRVLNVPKIVLNEKTEIPGSFPPTIILKMLAKGSEQH” as the sequence, how does the “soluble on expression in E. coli” value read?
Its value is “soluble”.

With “MGSDKIHHHHHHMKFFKSLLIAPAALGLMAPVAVNADTAFSPTTKLKSSVNFTVGSNADSADGDELHSSYEMKWKATTSFTGEDKLVGKFEIGSGKTLAGGIDPQSSKGGGKTPTLTDLYYQFPLAEDLTISIGPKMDGDQGLAGTTSVYGEPVLLAADGYYALAGEGGTGATIAYAGDNGWNASLNMTAADGDDASKGIFGDDTEDYVTAQLGFDGDGFGGTFTYSDSSDTYTAYGIGAYFQPESIPVTVSAYFDSMDPEKGEEDENWVVGVEADAGPGTLGVGVGTQKGTDEKLTYEAWYDYKIADGVKITPMIWTSEDAGVGGEDLSGAALNVKYKF” as the sequence, how does the “soluble on expression in E. coli” value read?
Its value is “not soluble”.
